What follows are sequences tested on Escherichia coli TOP10 (assay: shrunken log2 fold change of peptide-encoding DNA abundance (4.5 h post-induction vs induction); higher = less antimicrobial activity (less host growth inhibition)). Settings: time post-induction: 4.5 h; library: site-saturation at positions 5, 18, 19, 20.
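Note: peptides expressed intracellularly from a pBAD plasmid library in pooled LB shake-flask culture, induced with 0.3% L-arabinose, DNA abundance read by NGS, three biological replicates, DESeq2 with apeglm shrinkage.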

Sequence	shrunken log2 fold change
RRIRNRPPRLPRPRPRPRNRPRP	-0.000801
RRIRLRPPRLPRPRPRPGIDPRP	-0.0208
RRIRQRPPRLPRPRPRPEHEPRP	0.0155
RRIRTRPPRLPRPRPRPIRAPRP	-0.0672
RRIRARPPRLPRPRPRPCEVPRP	3.46
RRIRLRPPRLPRPRPRPWSWPRP	0.0711
RRIRFRPPRLPRPRPRPVKTPRP	0.0856
RRIRARPPRLPRPRPRPAANPRP	0.741
RRIRLRPPRLPRPRPRPGTNPRP	-0.0983
RRIRTRPPRLPRPRPRPGQFPRP	-0.182
RRIRYRPPRLPRPRPRPPWPPRP	0.405
RRIRSRPPRLPRPRPRPRQAPRP	-0.0163
RRIRTRPPRLPRPRPRPTARPRP	0.0618
RRIRWRPPRLPRPRPRPTSRPRP	0.0324
RRIRMRPPRLPRPRPRPHDRPRP	0.0623
RRIRRRPPRLPRPRPRPFPRPRP	0.272
RRIRNRPPRLPRPRPRPCTKPRP	0.00474
RRIRTRPPRLPRPRPRPFDQPRP	0.176
RRIRDRPPRLPRPRPRPDFDPRP	0.541
RRIRNRPPRLPRPRPRPITTPRP	-0.225
RRIRARPPRLPRPRPRPEYDPRP	0.695
RRIRVRPPRLPRPRPRPIVAPRP	-0.00399

Sequence	shrunken log2 fold change
RRIRVRPPRLPRPRPRPHVCPRP	-0.0775
RRIRMRPPRLPRPRPRPWPKPRP	0.543
RRIRGRPPRLPRPRPRPRKDPRP	0.726
RRIRKRPPRLPRPRPRPPSEPRP	0.413
RRIRVRPPRLPRPRPRPCDYPRP	-0.845
RRIRLRPPRLPRPRPRPSRLPRP	-0.0544
RRIRQRPPRLPRPRPRPVSDPRP	-0.0568
RRIRFRPPRLPRPRPRPTVIPRP	-0.371
RRIRDRPPRLPRPRPRPGFSPRP	0.0888
RRIRKRPPRLPRPRPRPYENPRP	-0.517
RRIRCRPPRLPRPRPRPPDPPRP	0.459
RRIRLRPPRLPRPRPRPNMKPRP	-0.173
RRIRFRPPRLPRPRPRPQKAPRP	0.0467
RRIRERPPRLPRPRPRPPQRPRP	0.315
RRIRHRPPRLPRPRPRPIMHPRP	-0.375
RRIRHRPPRLPRPRPRPTCEPRP	0.012
RRIRARPPRLPRPRPRPHSCPRP	0.0724
RRIRERPPRLPRPRPRPPVAPRP	0.658
RRIRCRPPRLPRPRPRPCQRPRP	0.0663
RRIRIRPPRLPRPRPRPHFKPRP	-0.368
RRIRRRPPRLPRPRPRPVMVPRP	-0.153
RRIRYRPPRLPRPRPRPCHYPRP	-0.00968

Sequence	shrunken log2 fold change
RRIRIRPPRLPRPRPRPWNNPRP	-0.89
RRIRLRPPRLPRPRPRPWRTPRP	0.0595
RRIRWRPPRLPRPRPRPMIGPRP	0.384
RRIRDRPPRLPRPRPRPRNIPRP	-0.0463
RRIRCRPPRLPRPRPRPLTCPRP	-0.184
RRIRQRPPRLPRPRPRPAKRPRP	0.0228
RRIRCRPPRLPRPRPRPDPIPRP	-0.0573
RRIRVRPPRLPRPRPRPPFAPRP	0.583
RRIRPRPPRLPRPRPRPVSFPRP	0.0766
RRIRPRPPRLPRPRPRPMIQPRP	0.0205
RRIRDRPPRLPRPRPRPQVWPRP	0.0447
RRIRERPPRLPRPRPRPLASPRP	0.16
RRIRLRPPRLPRPRPRPGRMPRP	0.123
RRIRIRPPRLPRPRPRPGGHPRP	-0.0701
RRIRTRPPRLPRPRPRPMVKPRP	-0.0282
RRIRDRPPRLPRPRPRPAHKPRP	-0.0546
RRIRSRPPRLPRPRPRPPGMPRP	-0.0105
RRIRRRPPRLPRPRPRPYFPPRP	0.31
RRIRIRPPRLPRPRPRPYQDPRP	-0.0361
RRIRCRPPRLPRPRPRPNSHPRP	-0.556
RRIRARPPRLPRPRPRPWAVPRP	0.295
RRIRRRPPRLPRPRPRPWMYPRP	-0.305

Sequence	shrunken log2 fold change
RRIRYRPPRLPRPRPRPECFPRP	-0.288
RRIRCRPPRLPRPRPRPCCYPRP	-0.696
RRIRERPPRLPRPRPRPGPFPRP	-0.128
RRIRERPPRLPRPRPRPMYCPRP	-0.064
RRIRPRPPRLPRPRPRPIRVPRP	-0.262
RRIRSRPPRLPRPRPRPGKEPRP	-0.0291
RRIRTRPPRLPRPRPRPVHVPRP	0.039
RRIRYRPPRLPRPRPRPETFPRP	-0.0918
RRIRHRPPRLPRPRPRPEWVPRP	-0.086
RRIRKRPPRLPRPRPRPSWTPRP	-0.0691
RRIRIRPPRLPRPRPRPYRHPRP	-0.0614
RRIRRRPPRLPRPRPRPHVCPRP	0.0988
RRIRFRPPRLPRPRPRPTMNPRP	-0.511
RRIRQRPPRLPRPRPRPMSCPRP	0.029
RRIRLRPPRLPRPRPRPFKLPRP	-0.294
RRIRKRPPRLPRPRPRPGLMPRP	0.343
RRIRHRPPRLPRPRPRPPDGPRP	0.178
RRIRMRPPRLPRPRPRPVDAPRP	1.17
RRIRKRPPRLPRPRPRPYQWPRP	-0.143
RRIRWRPPRLPRPRPRPDSVPRP	-0.0816
RRIRERPPRLPRPRPRPMCFPRP	-0.176
RRIRRRPPRLPRPRPRPHTYPRP	0.573

Sequence	shrunken log2 fold change
RRIRGRPPRLPRPRPRPDWCPRP	1.37
RRIRWRPPRLPRPRPRPKRYPRP	0.0352
RRIRNRPPRLPRPRPRPMSKPRP	-0.197
RRIRGRPPRLPRPRPRPFNSPRP	0.0167
RRIRIRPPRLPRPRPRPIQWPRP	0.0166
RRIRIRPPRLPRPRPRPIMPPRP	-0.825
RRIRFRPPRLPRPRPRPMTKPRP	0.0716
RRIRFRPPRLPRPRPRPRIYPRP	-0.326
RRIRNRPPRLPRPRPRPYQAPRP	0.036
RRIRSRPPRLPRPRPRPFTPPRP	-0.0114
RRIRCRPPRLPRPRPRPSKNPRP	-0.382
RRIRSRPPRLPRPRPRPHHYPRP	-0.998
RRIRHRPPRLPRPRPRPIMKPRP	-0.317
RRIRTRPPRLPRPRPRPANTPRP	-0.181
RRIRWRPPRLPRPRPRPHTKPRP	0.0624
RRIRLRPPRLPRPRPRPFYEPRP	-0.426
RRIRARPPRLPRPRPRPHWGPRP	0.119
RRIRVRPPRLPRPRPRPWDKPRP	-0.0363
RRIRQRPPRLPRPRPRPKPMPRP	0.382
RRIRDRPPRLPRPRPRPKQQPRP	-0.053
RRIRYRPPRLPRPRPRPNRQPRP	-0.053

Reference: the supplement of paper PMC9112550, “Optimization of the antimicrobial peptide Bac7 by deep mutational scanning” (BMC Biology, 2022)
